Target: the molecule itself
Assay: SEC; Ni2+ column eluate concentrated and run on Superdex 200 10/300 GL in Buffer C (1x PBS, 0.02% FC14); fractions tested by SDS-PAGE and Western blot; monomer, dimer and higher oligomer resolved

| Protein | binding result |
| --- | --- |
| Trx-hCX3CR1 (human chemokine receptor CX3CR1 with N-terminal HP-thioredoxin, expressed from pBAD-hCX3CR1) (receptor, UniProt P49238 1-355, looked up, synthetic full-length gene of 1,065 bp; not shown: HP-thioredoxin (E. coli thioredoxin with E32H and Q64H), N-terminal, kept; His6, C-terminal, kept) MDQFPESVTENFEYDDLAEACYIGDIVVFGTVFLSIFYSVIFAIGLVGNLLVVFALTNSKKPKSVTDIYLLNLALSDLLFVATLPFWTHYLINEKGLHNAMCKFTTAFFFIGFFGSIFFITVISIDRYLAIVLAANSMNNRTVQHGVTISLGVWAAAILVAAPQFMFTKQKENECLGDYPEVLQEIWPVLRNVETNFLGFLLPLLIMSYCYFRIIQTLFSCKNHKKAKAIKLILLVVIVFFLFWTPYNVMIFLETLKLYDFFPSCDMRKDLRLALSVTETVAFSHCCLNPLIYAFAGEKFRRYLYHLYGKCLAVLCGRSVHVDFSSSESQRSRHGSVLSSNFTYHTSDGDALLLL | binds |
| Trx-hCCR3 (human chemokine receptor CCR3 with N-terminal HP-thioredoxin, expressed from pBAD-hCCR3) (receptor, UniProt P51677 1-355, looked up, synthetic full-length gene of 1,065 bp; not shown: HP-thioredoxin (E. coli thioredoxin with E32H and Q64H), N-terminal, kept; His6, C-terminal, kept) MTTSLDTVETFGTTSYYDDVGLLCEKADTRALMAQFVPPLYSLVFTVGLLGNVVVVMILIKYRRLRIMTNIYLLNLAISDLLFLVTLPFWIHYVRGHNWVFGHGMCKLLSGFYHTGLYSEIFFIILLTIDRYLAIVHAVFALRARTVTFGVITSIVTWGLAVLAALPEFIFYETEELFEETLCSALYPEDTVYSWRHFHTLRMTIFCLVLPLLVMAICYTGIIKTLLRCPSKKKYKAIRLIFVIMAVFFIFWTPYNVAILLSSYQSILFGNDCERSKHLDLVMLVTEVIAYSHCCMNPVIYAFVGERFRKYLRHFFHRHLLMHLGRYIPFLPSEKLERTSSVSPSTAEPELSIVF | binds |
